Reference: publication PMC4906797

Test system: C/C=C/C=C/C(=O)CC(=O)SCCNC(C)=O
Assay: purified protein

Substance: LovB (lovastatin nonaketide synthase) (Aspergillus terreus)
- kcat: 3.27 s⁻¹
